Reference: US20050192211A1 (Merck KGaA, published 2005)

Biological target: T1, EPO receptor (UniProt P19235 25-508, limits assumed)
T1 sequence (looked up): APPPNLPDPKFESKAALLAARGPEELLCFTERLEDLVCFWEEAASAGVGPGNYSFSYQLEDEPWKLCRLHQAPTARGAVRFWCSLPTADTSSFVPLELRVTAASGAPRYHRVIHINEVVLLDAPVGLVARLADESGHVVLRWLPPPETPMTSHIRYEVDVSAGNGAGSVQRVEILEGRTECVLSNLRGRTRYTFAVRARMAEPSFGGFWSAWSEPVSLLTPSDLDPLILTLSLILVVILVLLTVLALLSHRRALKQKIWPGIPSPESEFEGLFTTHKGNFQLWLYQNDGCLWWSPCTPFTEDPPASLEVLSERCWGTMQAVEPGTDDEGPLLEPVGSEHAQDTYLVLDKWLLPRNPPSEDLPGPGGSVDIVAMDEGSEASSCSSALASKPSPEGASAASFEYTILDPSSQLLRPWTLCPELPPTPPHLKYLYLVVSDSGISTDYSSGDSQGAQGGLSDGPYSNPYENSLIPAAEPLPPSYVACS
Experiment: cell-based or functional assay

## EPO (Aranesp®) (ligand)
  ED50, TF-1 cell proliferation (3H-thymidine incorporation); S.D. 0.96; N 10: 2.4 ng/mL
